Results taken from US11780895B2, “Targeted DNA demethylation and methylation” (The Jackson Laboratory, priority 2016, dated 2023).
Residue numbers refer to the chain shown, from its start.

B1: PUFa-TET1(CD): hTET1 catalytic domain (residues 1418 to 2136) fused to the C-terminus of PUFa (protein)
chain: MIDGGGGSDPKKKRKVDPKKKRKVDPKKKRKVGSTGSRNDGGGGSGGGGSGGGGSGRAGILPPKKKRKVSRGRSRLLEDFRNNRYPNLQLREIAGHIMEFSQDQHGSRFIQLKLERATPAERQLVFNEILQAAYQLMVDVFGNYVIQKFFEFGSLEQKLALAERIRGHVLSLALQMYGSRVIEKALEFIPSDQQNEMVRELDGHVLKCVKDQNGNHVVQKCIECVQPQSLQFIIDAFKGQVFALSTHPYGCRVIQRILEHCLPDQTLPILEELHQHTEQLVQDQYGNYVIQHVLEHGRPEDKSKIVAEIRGNVLVLSQHKFASNVVEKCVTHASRTERAVLIDEVCTMNDGPHSALYTMMKDQYANYVVQKMIDVAEPGQRKIVMHKIRPHIATLRKYTYGKHILAKLEKYYMKNGVDLGDPKKKRKVDPKKKRKVGGRGGGGSGGGGSGGGGSGPAELPTCSCLDRVIQKDKGPYYTHLGAGPSVAAVREIMENRYGQKGNAIRIEIVVYTGKEGKSSHGCPIAKWVLRRSSDEEKVLCLVRQRTGHHCPTAVMVVLIMVWDGIPLPMADRLYTELTENLKSYNGHPTDRRCTLNENRTCTCQGIDPETCGASFSFGCSWSMYFNGCKFGRSPSPRRFRIDPSSPLHEKNLEDNLQSLATRLAPIYKQYAPVAYQNQVEYENVARECRLGSKEGRPFSGVTACLDFCAHPHRDIHNMNNGSTVVCTLTREDNRSLGVIPQDEQLHVLPLYKLSDTDEFGSKEGMEAKIKSGAIEVLAPRRKKRTCFTQPVPRSGKKRAAMMTEVLAHKIRAVEKKPIPRIKRKNNSTTTNNSKPSSLPTLGSNTETVQPEVKSETEPHFILKSSDNTKTYSLMPSAPHPVKEASPGFSWSPKTASATPAPLKNDATASCGFSERSSTPHCTMPSGRLSGANAAAADGPGISQLGEVAPLPTLSAPVMEPLINSEPSTGVTEPLTPHQPNHQPSFLTSPQDLASSPMEEDEQHSEADEPPSDEPLSDDPLSPAEEKLPHIDEYWSDSEHIFLDANIGGVAIAPAHGSVLIECARRELHATTPVEHPNRNHPTRLSLVFYQHKNLNKPQHGFELNKIKFEAKEAKNKKMKASEQKDQAANEGPEQSSEVNELNQIPSHKALTLTHDNVVTVSPYALTHVAGPYNHWVID
B2: TET1(CD)-PUFa: hTET1 catalytic domain fused to the N-terminus of PUFa (protein)
chain: MGPAELPTCSCLDRVIQKDKGPYYTHLGAGPSVAAVREIMENRYGQKGNAIRIEIVVYTGKEGKSSHGCPIAKWVLRRSSDEEKVLCLVRQRTGHHCPTAVMVVLIMVWDGIPLPMADRLYTELTENLKSYNGHPTDRRCTLNENRTCTCQGIDPETCGASFSFGCSWSMYFNGCKFGRSPSPRRFRIDPSSPLHEKNLEDNLQSLATRLAPIYKQYAPVAYQNQVEYENVARECRLGSKEGRPFSGVTACLDFCAHPHRDIHNMNNGSTVVCTLTREDNRSLGVIPQDEQLHVLPLYKLSDTDEFGSKEGMEAKIKSGAIEVLAPRRKKRTCFTQPVPRSGKKRAAMMTEVLAHKIRAVEKKPIPRIKRKNNSTTTNNSKPSSLPTLGSNTETVQPEVKSETEPHFILKSSDNTKTYSLMPSAPHPVKEASPGFSWSPKTASATPAPLKNDATASCGFSERSSTPHCTMPSGRLSGANAAAADGPGISQLGEVAPLPTLSAPVMEPLINSEPSTGVTEPLTPHQPNHQPSFLTSPQDLASSPMEEDEQHSEADEPPSDEPLSDDPLSPAEEKLPHIDEYWSDSEHIFLDANIGGVAIAPAHGSVLIECARRELHATTPVEHPNRNHPTRLSLVFYQHKNLNKPQHGFELNKIKFEAKEAKNKKMKASEQKDQAANEGPEQSSEVNELNQIPSHKALTLTHDNVVTVSPYALTHVAGPYNHWVIDGGGGSDPKKKRKVDPKKKRKVDPKKKRKVGSTGSRNDGGGGSGGGGSGGGGSGRAGILPPKKKRKVSRGRSRLLEDFRNNRYPNLQLREIAGHIMEFSQDQHGSRFIQLKLERATPAERQLVFNEILQAAYQLMVDVFGNYVIQKFFEFGSLEQKLALAERIRGHVLSLALQMYGSRVIEKALEFIPSDQQNEMVRELDGHVLKCVKDQNGNHVVQKCIECVQPQSLQFIIDAFKGQVFALSTHPYGCRVIQRILEHCLPDQTLPILEELHQHTEQLVQDQYGNYVIQHVLEHGRPEDKSKIVAEIRGNVLVLSQHKFASNVVEKCVTHASRTERAVLIDEVCTMNDGPHSALYTMMKDQYANYVVQKMIDVAEPGQRKIVMHKIRPHIATLRKYTYGKHILAKLEKYYMKNGVDLGDPKKKRKVDPKKKRKVGGRGGGGSGGGGSGGGGSGPA
B3: PUFa-VP64: PUF(3-2) domain with NLS fused to VP64 (protein)
chain: MGILPPKKKRKVSRGRSRLLEDFRNNRYPNLQLREIAGHIMEFSQDQHGSRFIQLKLERATPAERQLVFNEILQAAYQLMVDVFGNYVIQKFFEFGSLEQKLALAERIRGHVLSLALQMYGSRVIEKALEFIPSDQQNEMVRELDGHVLKCVKDQNGNHVVQKCIECVQPQSLQFIIDAFKGQVFALSTHPYGCRVIQRILEHCLPDQTLPILEELHQHTEQLVQDQYGNYVIQHVLEHGRPEDKSKIVAEIRGNVLVLSQHKFASNVVEKCVTHASRTERAVLIDEVCTMNDGPHSALYTMMKDQYANYVVQKMIDVAEPGQRKIVMHKIRPHIATLRKYTYGKHILAKLEKYYMKNGVDLGGPAGSGRADALDDFDLDMLGSDALDDFDLDMLGSDALDDFDLDMLGSDALDDFDLDMLYID
B4: PUFb-VP64: PUF(6-2/7-2) domain with NLS fused to VP64 (protein)
chain: B3 chain with S122C, E126Q, N230S, Q234E, S266N, E270Q

Tests used:
hMLH1 = hMLH1 mRNA levels by TaqMan qRT-PCR in transfected HEK293T cells; assay type: cell-based, human; details: for activation of hMLH1 by dCas9 direct fusions (relative change in mRNA levels): same combination of sgRNAs as Casilio-ME; for hMLH1 expression, fold over background (change in mRNA levels): sgRNAs 3+7, 60 hours post-transfection, GAPDH normalised
Method: To test the system, HEK293T cells were transfected with Casilio-ME components including Ct or Nt-fusion TET1-effector and a combination of 3 or 2 sgRNAs. Relative levels of hMLH1 mRNA were determined in TaqMan assays by using RNA extracted from cells 60 hours post-transfection and GAPDH as endogenous control for normalization of qRT-PCR measurements.
Cell culture and transfection. HEK293T cells were cultivated in Dulbecco's modified Eagle's medium (DMEM)(Sigma) with 10% fetal bovine serum (FBS)(Lonza), 4% Glutamax (Gibco), 1% Sodium Pyruvate (Gibco) and penicillin-streptomycin (Gibco) in an incubator set to 37° C. and 5% CO2. When indicated cells were treated with 2.5 μM or 5 μM 5-Azacytidine (sigma) as indicated with a daily change of medium containing freshly diluted drug. Cells were seeded into 12-well plates at 150,000 cells per well the day before being transfected with 100 ng of dCas9 construct, 100 ng of modified sgRNA construct and 200 ng of PUF-fusion with Attractene transfection reagent according to manufacturer's instructions (Qiagen). In dCas9-direct fusion experiments, cells were transfected with 200 ng dCas9-fusion constructs and 200 ng of modified sgRNA constructs. Transfected cells were harvested 60 hours after transfection, or otherwise indicated, and cell pellets were used for extractions of RNA, genomic DNA and protein.
Quantitative RT-PCR analysis. Cells were harvested, washed with Dulbecco's phosphate-buffered saline (dPBS), centrifuged at 125×g for 5 min and then the flash-frozen pellets were stored at −80° C. RNA was extracted using RNeasy Plus Mini Kit according to the manufacturer's instructions (Qiagen). cDNA libraries were made using Applied Biosystems High Capacity RNA-to-cDNA kit with 200 ng to 1 μg of RNA. TaqMan gene expression assays (Applied Biosystems) were designed using GAPDH (Hs03929097, VIC) as endogenous control and hMLH1 (Hs00179866, FAM) as target. TaqMan Universal Master Mix II, with UNG (Applied Biosystems) was used for Quantitative PCR (qPCR), with 2 μl of diluted cDNA used for each reaction. Activation was analyzed with the Applied Biosystems ViiA7 instrument. Gene expression levels were calculated by “delta delta Ct” algorithm and normalized to control samples.

TetO::tdTomato transgene = TetO::tdTomato transgene activation measured by FACS; assay type: cell-based; details: for transgene activation with 15, 20, and 47 copies of PBS: with dCas9 and sgTetO-PBS, compared with 5-10 copies
Description: In particular, to test whether appending PBS to the 3′ end of sgRNA affects sgRNA function, a series of modified Tet-targeting (sgTetO) or non-targeting control (sgControl) sgRNA were generated, with 0 copy, 5 copies, 15 copies, 25 copies, and 47 copies of the 8-mer Pumilio homologue domain-binding sequence (PBS) for PUF (3-2) (also simply referred to as PUFa) [PBS32 or PBSa: SEQ ID NO:8 (5′-UGUAUgUA-3′)], PUF(6-2/7-2) (also simply referred to as PUFb) [PBS6272 or PBSb: SEQ ID NO:9 (5′-UugAUAUA-3′)].
Cells were transfected with dCas9-VP64 with the different sgRNA scaffolds, and were analyzed by fluorescent-activated cell sorting (FACS) two days after transfection (FIG. 1B).
Fusions of PUF(3-2)::VP64 and PUF(6-2/7-2)::VP64, which interacts with sgRNA (sgRNA-PBS32) with 5′-UGUAUgUA-3′ binding sites and sgRNA-PBS6272 with 5′-UugAUAUA-3′ binding sites, respectively, were created, and their activity to turn on tdTomato expression in conjunction with dCas9 was tested. In addition, two additional pairs, PUFw-VP64 recognizing PBSw (5′-UGUAUAUA-3′) and PUFc-VP64 recognizing PBSc (5′-UugAUgUA-3′), were also constructed to test their ability to activate the same TetO::tdTomato expression in conjunction with dCas9 (FIG. 1D).
Cell Culture for Experiments. HEK293T cells were cultivated in Dulbecco's modified Eagle's medium (DMEM)(Sigma) with 10% fetal bovine serum (FBS)(Lonza), 4% Glutamax (Gibco), 1% Sodium Pyruvate (Gibco) and penicillin-streptomycin (Gibco). Incubator conditions were 37° C. and 5% CO2. For activation experiments, cells were seeded into 12-well plates at 100,000 cells per well the day before being transfected with 200 ng of dCas9 construct, 100 ng of modified sgRNA and 100 ng of PUF-fusion with Attractene transfection reagent (Qiagen). After transfection, cells were grown for 48 hrs and harvested for either RNA extraction or fluorescent-activated cell sorting (FACS). […]
Fluorescent-Activated Cell Sorting. […] Samples were analyzed on a FACScalibur flow cytometer using CellQuest Pro software (BD Bioscience). […] were collected in each run.

Molecule	activation of hMLH1 by dCas9 direct fusions (relative change in mRNA levels) (hMLH1; HEK293T)	hMLH1 expression, fold over background (change in mRNA levels) (hMLH1; HEK293T) [fold]	transgene activation with 15, 20, and 47 copies of PBS (TetO::tdTomato transgene)	also measured
TET1(CD)-dCas9: direct fusion of TET1(CD) to the N-terminus of dCas9	much weaker activation than its respective C-terminal fusion			
dCas9-TET1(CD): direct fusion of TET1(CD) to the C-terminus of dCas9	relatively weak activation	19		hMLH1 activation relative to dCas9-p65HSF1 (hMLH1; HEK293T, same sgRNA combination): at best twice the activity obtained with transcription activator dCas9 fusion; hMLH1 activation as percentage of the activation obtained using Casilio-ME (hMLH1; same sgRNAs combination, parallel experiment): about 14%
B1		135		time course of activation of hMLH1 transcription (hMLH1; HEK293T, RNA guides 3 and 7, 3, 4, 5 and 6 days post transfection): maintained during the course of these transient transfections
B2		≤ 20		
B3			slightly lower, albeit still substantial transgene activation	activation with only one PBSa (TetO::tdTomato transgene; TetO-targeting sgRNA with 1 copy of PBSa): previously not observed
B4			slightly lower, albeit still substantial transgene activation	
